In patent US11135301B2, “Triblock polypeptide-based nanoparticles for the delivery of hydrophilic drugs” (Duke University, priority 2016, dated 2021):
Where “and” joins values, the source holds several entries; their conditions need not be identical. Equal entries are not always repeated. Structures can show the parent of a compound that is named as a salt.

Assays:
[1] = Temperature-programmed turbidimetry (transition temperature Tt); format: physicochemical; details: for Tt, Concentration 25 μM / Tt, Concentration 50 μM / Tt, Concentration 100 μM: ATBP or ATBP-SMM conjugate in PBS; for Tt, Concentration 25 μM: ATBP concentration 25 μM; for Tt, Concentration 50 μM: ATBP concentration 50 μM; for Tt, Concentration 100 μM: ATBP concentration 100 μM
Description: Temperature-Programmed Turbidimetry:
To determine the Tt ATBP-SMM conjugate or parent ATBP were resuspended in PBS at ATBP concentrations of […] and the optical density of each sample was measured at 350 nm by ramping the temperature at a rate of 1° C./min on a temperature-controlled UV-vis spectrophotometer (Cary 300 Bio; Varian Instruments, Palo Alto, Calif.). The Tt was determined from the inflection point of the turbidity profile. […]

[2] = Dynamic light scattering (hydrodynamic radius); format: physicochemical; details: ATBP or ATBP-SMM conjugate nanoparticles, DLS in PBS at 22° C.
Description: (§1) Static and Dynamic Light Scattering:
(§2) Static and dynamic light scattering measurements were performed on an ALV/CGS-3 goniometer system (Langen, Germany) to determine the Rh and Rg of the ATBP and ATBP-SMM nanoparticle. For the ALV/CGS-3 goniometer system, ATBP and ATBP-SMM conjugates were resuspended in PBS and filtered through 0.22 μm Millex-GV filters into a 10 mm diameter disposable borosilicate glass tube (Fisher). SLS and DLS were measured simultaneously at 22° C. for angles between 30°-150° at 5° increments, where the measurements at each angle was of 3 runs for 15 seconds. The differential refractive index (dn/dc) was quantified by determining the refractive index at five different dilutions using an Abbemat 500 refractometer (Anton Paar, Graz, Austria). DLS data were analyzed by fitting the autocorrelation function to a biexponential decay using the HDRC software package (Germany). The Rh was plotted against angle and extrapolated to zero scattering angle in order to eliminate the effect of the form factor and observe the true hydrodynamic radius. Partial Zimm plots were used to analyze the SLS measurements and ALV/Dynamic and Static FIT and PLOT software was used to determine the Rg and MW of the nanoparticles. The Nagg was calculated by dividing the MW of the nanoparticles by the MW of the ATBP or ATBP-SMM conjugate.
(§3) The detailed procedure was identical to that used to characterize ATBP-SMM conjugates.

[3] = Static light scattering (Rg, Nagg, shape factor); format: physicochemical; details: for ρ (Rg/Rh) shape factor: computed from DLS and SLS data; for Nagg (chains per nanoparticle) / Rg: nanoparticles; for Nagg (chains per nanoparticle): SLS; for Rg: SLS partial Zimm plot
Description: as §1, §2, §3

[4] = Pyrene fluorescence assay (critical aggregation concentration); format: physicochemical
Description: The CAC of ATBP and ATBP-SMM conjugates were determined by fluorescence spectroscopy using pyrene which was utilized as a probe of the local hydrophobicity. The ratio of the first fluorescence emission peak (I370-373) and the third peak (I381-394) were measured at different ATBP concentrations. The inflection point of the curves was used to determine the CAC.
ATBP-GEM was characterized by DLS, SLS, cryo-TEM, AFM, temperature programmed turbidimetry and pyrene fluorescence assay. The detailed procedure was identical to that used to characterize ATBP-SMM conjugates.

[5] = SMM conjugation ratio by Ellman's reagent assay; format: physicochemical
Description: Determination of SMM Conjugation Ratio:
Following purification, 2-3 mg of lyophilized ATBP was dissolved in 1 mL ddH20. In order to break any pre-existing disulfide bonds between unconjugated cysteine residues, 100 μL of the conjugate was incubated with 100 μL of Immobilized TCEP Reducing Gel (Thermo Fisher Scientific; Rockford, Ill.) for 1 hr at 25° C. Included spin columns were utilized to separate the TCEP beads from the ATBP conjugates. The solution was then split for use in two parallel assays. To determine the ATBP concentration, a 96-well bicinchoninic acid assay (Thermo Fisher Scientific) was used on a Victor3™ microplate reader (Perkin Elmer; Waltham, Mass.). 10 μL of ATBP solution was mixed with 200 μL of BCA working reagent, incubated for 30 min at 37° C., and was compared to an ATBP standard curve (100, 50, 25, 10, 5, 0 μM) fit to a 2nd order polynomial in order to estimate the ATBP concentration for the absorbance at 560 nm. Each conjugate was measured in triplicate. To determine the concentration of free thiols, a 96-well Ellman's assay was developed for use on the Victor3™ microplate reader at an absorbance of 405 nm. 40 μL of an ATBP solution was mixed with 200 μL of a working reagent (25 μM Ellman's reagent in 100 mM phosphate buffer, 1 mM EDTA, pH 8.0), incubated for 2 h at 25° C., and was compared to a standard curve of the ATBP prior to conjugation (100, 50, 25, 10, 5, 0 μM). […] The conjugation ratio was the difference between the number of cysteines (8/ATBP) and the calculated number of free cysteines.

[6] = system: HCT116 human colon cancer cells; experiment: In vitro cytotoxicity (MTS), HCT116; format: cell-based; details: HCT-116, 72 h, HCT-116 cells, GEM equivalent
Description: (§4) HCT116 and Colo205 human colon cancer cells were procured from Duke Cell Culture Facility and were cultured in complete media containing Minimum Essential Medium Eagle (MEME) supplemented with 10% Fetal Bovine Serum (FBS). Cells were maintained at 37° C. and 5% CO2 and passaged every 2-3 days. […] 20 μL of CellTiter 96 AQueous™ (Promega; Madison, Wis.) 3-(4,5,-[…])-5-(3-carboxymethoxyphenyl)-2-(4-sulfophenyl)-2H-tetrazolium (MTS) solution was added to each well and incubated at 37° C. After 2 h of incubation, the absorbance of the solution was measured at 490 nm with a Victor3 microplate reader (Perkin Elmer; Waltham, Mass.).

[7] = system: Colo205 human colon cancer cells; experiment: In vitro cytotoxicity (MTS), Colo205; format: cell-based; details: COLO 205, 72 h, Colo 205 cells, GEM equivalent
Description: as §4

[8] = system: subcutaneous HCT116 tumors; experiment: Tumor regression, subcutaneous HCT116 xenograft; format: in vivo, mice; details: 25 mg·kg^−1 GEM equivalent i.v. on day 0, 2 and 4, n=6
Description: The PBS control or drugs were administered by tail vein infusion (50 μL/min) of 500 μL. Tumor dimensions and BW were determined 3-4 times a week, and the tumor volume was calculated using the equation: volume [mm^3]=length×width×width×1/2.
BW of mice were monitored and the mice were euthanized upon exceeding 15% loss in BW or if their tumors volume was greater than 1000 mm^3. […] The maximum tolerated dose (MTD) was determined in mice with tumors. Kaplan-Meier analysis was used to compare the cumulative survival and the Sidak test, Tukey Test, Wilcoxon test were carried out using GraphPad Prism 6 software.

[9] = reported value in nude mice; cited from earlier work
[10] = Table 1, ATBP or ATBP-SMM conjugate, pyrene assay

Molecule | Tt, Concentration 25 μM [1] [C] | Tt, Concentration 50 μM [1] [C] | Tt, Concentration 100 μM [1] [C] | Rh [2] | ρ (Rg/Rh) shape factor [3] | Nagg (chains per nanoparticle) [3] | Rg [3] [nm] | CAC [4, 10] [µM] | #SMM/ATBP (number of SMM conjugated per ATBP) [5] | IC50 [6] [nM] | IC50 [7] [nM] | median survival time [8] [days] | mean tumor volume ([8]; 12 days after treatment) [mm^3] | terminal half-life [9] [h] | Tt ([1]; FIG. 3(G), thermal turbidimetry at 350 nm) [°C] | CAC ([4]; pyrene fluorescence assay)
O=C1C=CC(=O)N1c1ccccc1 [SMM 7, N-Phenyl maleimide] | 48 | 44 | 41 | 49.1 nm | 0.905 | 112 | 44.4 | 1.6 | 7.0 |  |  |  |  |  |  | 
O=C1C=CC(=O)N1O [SMM 1, N-hydroxymaleimide] | 49 | 46 | 41 | 87.3 nm | 0.81 | 41 | 77.0 | 8.2 | 7.4 |  |  |  |  |  |  | 
CN1C(=O)C=CC1=O [SMM 5, N-methyl maleimide] | 45 | 44 | 42 | 46.8 nm | 0.978 | 62 | 45.7 | 4.9 | 6.8 |  |  |  |  |  |  | 
Cl.NCCN1C(=O)C=CC1=O [SMM 2, N-1-(2-Amino-ethyl)-pyrrole-2,5-dione hydrochloride] | 49 | 46 | 41 | 123.5 nm | 1.14 | 50 | 141.0 | 6.6 | 6.9 |  |  |  |  |  |  | 
Nc1ccn([C@@H]2O[C@H](CO)[C@@H](O)C2(F)F)c(=O)n1 [GEM, Gemcitabine] |  |  |  |  |  |  |  |  |  | ~4.1 | ~46.4 | 21 | 343 | 3.4 |  | 
CS(=O)(=O)OCCN1C(=O)C=CC1=O [SMM 3, N-2-Maleimidoethyl mesylate] | 45 | 42 | 38 | 109.1 nm | 1.06 | 219 | 115.6 | 3.2 | 6.9 |  |  |  |  |  |  | 
CC(C)(C)N1C(=O)C=CC1=O [SMM 8, N-^tbutyl maleimide] | 44 | 47 | 41 | 46.2 nm | 0.963 | 93 | 44.5 | 1.5 | 6.4 |  |  |  |  |  |  | 
CCN1C(=O)C=CC1=O [SMM 6, N-ethyl maleimide] | 47 | 46 | 40 | 62.3 nm | 1.004 | 115 | 62.5 | 3.8 | 7.1 |  |  |  |  |  |  | 
SKGPG-(AGVPG)160-(YG)6-(CGG)8-WP (protein) SKGPGAGVPGAGVPGAGVPGAGVPGAGVPGAGVPGAGVPGAGVPGAGVPGAGVPGAGVPGAGVPGAGVPGAGVPGAGVPGAGVPGAGVPGAGVPGAGVPGAGVPGAGVPGAGVPGAGVPGAGVPGAGVPGAGVPGAGVPGAGVPGAGVPGAGVPGAGVPGAGVPGAGVPGAGVPGAGVPGAGVPGAGVPGAGVPGAGVPGAGVPGAGVPGAGVPGAGVPGAGVPGAGVPGAGVPGAGVPGAGVPGAGVPGAGVPGAGVPGAGVPGAGVPGAGVPGAGVPGAGVPGAGVPGAGVPGAGVPGAGVPGAGVPGAGVPGAGVPGAGVPGAGVPGAGVPGAGVPGAGVPGAGVPGAGVPGAGVPGAGVPGAGVPGAGVPGAGVPGAGVPGAGVPGAGVPGAGVPGAGVPGAGVPGAGVPGAGVPGAGVPGAGVPGAGVPGAGVPGAGVPGAGVPGAGVPGAGVPGAGVPGAGVPGAGVPGAGVPGAGVPGAGVPGAGVPGAGVPGAGVPGAGVPGAGVPGAGVPGAGVPGAGVPGAGVPGAGVPGAGVPGAGVPGAGVPGAGVPGAGVPGAGVPGAGVPGAGVPGAGVPGAGVPGAGVPGAGVPGAGVPGAGVPGAGVPGAGVPGAGVPGAGVPGAGVPGAGVPGAGVPGAGVPGAGVPGAGVPGAGVPGAGVPGAGVPGAGVPGAGVPGAGVPGAGVPGAGVPGAGVPGAGVPGAGVPGAGVPGAGVPGAGVPGAGVPGAGVPGAGVPGAGVPGAGVPGAGVPGAGVPGAGVPGAGVPGAGVPGAGVPGAGVPGAGVPGAGVPGAGVPGYGYGYGYGYGYGCGGCGGCGGCGGCGGCGGCGGCGGWP | 47 | 44 | 40 | 50 nm and 50.1 nm | 0.85 | 62 | 42.6 | 3.6 |  |  |  |  |  |  | 47 | about 3.6 μM
